How the values were obtained:
HSP70-1A, P0DMV8 = experiment: co-immunoprecipitation (anti-GFP IP) with immunoblot densitometry; conditions: chain shown with the change; detergent lysates from stably transfected HEK293 cells; three independent experiments; parent: est. 0.32; read off a plot
calnexin, P27824 = molecular target: T1, calnexin, P27824; experiment: as above; conditions: chain shown with the change; detergent lysates from stably transfected HEK293 cells; three independent experiments; parent: est. 0.73; read off a plot
T1 chain: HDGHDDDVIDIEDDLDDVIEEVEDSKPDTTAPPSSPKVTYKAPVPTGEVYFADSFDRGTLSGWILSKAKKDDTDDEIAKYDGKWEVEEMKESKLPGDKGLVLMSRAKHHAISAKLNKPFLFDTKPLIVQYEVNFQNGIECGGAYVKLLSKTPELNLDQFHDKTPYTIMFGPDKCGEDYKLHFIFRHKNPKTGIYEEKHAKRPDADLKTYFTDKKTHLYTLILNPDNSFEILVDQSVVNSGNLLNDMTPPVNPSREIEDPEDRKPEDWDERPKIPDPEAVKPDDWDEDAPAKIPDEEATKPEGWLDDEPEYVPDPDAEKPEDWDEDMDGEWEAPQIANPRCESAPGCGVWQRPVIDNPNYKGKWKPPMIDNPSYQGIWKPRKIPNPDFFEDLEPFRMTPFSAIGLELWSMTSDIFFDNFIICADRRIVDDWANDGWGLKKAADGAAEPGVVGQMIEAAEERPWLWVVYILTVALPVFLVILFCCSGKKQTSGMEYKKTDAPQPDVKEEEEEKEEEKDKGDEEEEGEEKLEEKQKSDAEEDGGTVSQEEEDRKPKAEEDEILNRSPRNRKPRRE

Sequence of HSP70-1A, P0DMV8 (P0DMV8 whole entry): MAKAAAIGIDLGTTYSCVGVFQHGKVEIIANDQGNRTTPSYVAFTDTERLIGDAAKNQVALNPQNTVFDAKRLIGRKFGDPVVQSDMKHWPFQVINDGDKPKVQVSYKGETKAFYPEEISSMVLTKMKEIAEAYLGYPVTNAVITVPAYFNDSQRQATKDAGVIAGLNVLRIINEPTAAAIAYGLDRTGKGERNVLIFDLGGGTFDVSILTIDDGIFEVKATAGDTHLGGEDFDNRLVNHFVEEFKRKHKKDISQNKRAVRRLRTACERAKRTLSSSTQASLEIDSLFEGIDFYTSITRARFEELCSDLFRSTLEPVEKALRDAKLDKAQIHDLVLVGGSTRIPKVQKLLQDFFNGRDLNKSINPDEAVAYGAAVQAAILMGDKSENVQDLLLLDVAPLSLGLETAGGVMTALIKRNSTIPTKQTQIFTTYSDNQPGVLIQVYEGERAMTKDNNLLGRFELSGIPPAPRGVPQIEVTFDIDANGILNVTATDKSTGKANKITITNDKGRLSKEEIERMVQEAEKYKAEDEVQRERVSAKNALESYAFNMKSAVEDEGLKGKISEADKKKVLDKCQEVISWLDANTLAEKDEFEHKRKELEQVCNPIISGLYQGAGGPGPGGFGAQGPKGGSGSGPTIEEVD

response (integrated density (chaperones/DAT)) (HSP70-1A, P0DMV8): 0.73
response (integrated density (chaperones/DAT)) (calnexin, P27824): 1.7
B1: YFP-tagged wild-type Drosophila melanogaster dopamine transporter, Q7K4Y6 G108Q (protein)
chain: MSPTGHISKSKTPTPHDNDNNSISDERETWSGKVDFLLSVIGFAVDLANVWRFPYLCYKNGGGAFLVPYGIMLVVGGIPLFYMELALGQHNRKGAITCWGRLVPLFKQIGYAVVLIAFYVDFYYNVIIAWSLRFFFASFTNSLPWTSCNNIWNTPNCRPFESQNASRVPVIGNYSDLYAMGNQSLLYNETYMNGSSLDTSAVGHVEGFQSAASEYFNRYILELNRSEGIHDLGAIKWDMALCLLIVYLICYFSLWKGISTSGKVVWFTALFPYAVLLILLIRGLTLPGSFLGIQYYLTPNFSAIYKAEVWVDAATQVFFSLGPGFGVLLAYASYNKYHNNVYKDALLTSFINSATSFIAGFVIFSVLGYMAHTLGVRIEDVATEGPGLVFVVYPAAIATMPASTFWALIFFMMLLTLGLDSSFGGSEAIITALSDEFPKIKRNRELFVAGLFSLYFVVGLASCTQGGFYFFHLLDRYAAGYSILVAVFFEAIAVSWIYGTNRFSEDIRDMIGFPPGRYWQVCWRFVAPIFLLFITVYGLIGYEPLTYADYVYPSWANALGWCIAGSSVVMIPAVAIFKLLSTPGSLRQRFTILTTPWRDQQSMAMVLNGVTTEVTVVRLTDTETAKEPVDV
